Source: patent publication US20110312891A1, “ENAMEL MATRIX DERIVATIVE FRACTION C” (Straumann Holding AG, priority 2008, published 2011)

B1: PTH: PTH peptides compared with EMD on primary osteoblasts (protein, UniProt P01270 32-115, looked up)
Parathyroid hormone: SVSEIQLMHNLGKHLNSMERVEWLRKKLQDVHNFVALGAPLAPRDAGSQRPRKKEDNVLVESHEKSLGEADKADVNVLTKAKSQ
modifications: Parathyroid hormone
notes: PTH peptides compared with EMD on primary osteoblasts
B2: rhAmel: recombinant human amelogenin over-expressed in Escherichia Coli (protein, UniProt Q99217 17-191, looked up)
Amelogenin, X isoform: MPLPPHPGHPGYINFSYEVLTPLKWYQSIRPPYPSYGYEPMGGWLHHQIIPVLSQQHPPTHTLQPHHHIPVVPAQQPVIPQQPMMPVPGQHSMTPIQHHQPNLPPPAQQPYQPQPVQPQPHQPMQPQPPVHPMQPLPPQPPLPPMFPMQPLPPMLPDLTLEAWPSTDKTKREEVD

How the values were obtained:
osteoblasts = assay: Effect of fraction C, its isoforms and synthetic amelogenin peptides on bone markers in osteoblasts; type: cell-based; conditions: for LDH activity in the culture medium: compared with fraction C and the mix of peptides (3113), slightly more toxic effect
Experimental: We have tested synthetic peptides of amelogenin (exon1, 3 and 5) of various lengths.
Fraction C, having a molecular weight of 5250.4 g/mol was used at a final concentration of 5 μg/ml (0.9 μmol/L). The peptides were used in a molar concentration similar to fraction C. WBRA001 enhanced osteocalcin and CD44 expression and secretion similar to fraction C, the smaller peptides had no effect on the bone markers in osteoblasts. 5 kDa amelogenins, isolated from EMD batch 3113 was identified to contain both; C1RP or C2RP (1-43 and 1-45 TRAP), whereas the fraction C isolated from EMD batch 9121 contains not only C1RP and C2R (1-43 and 1-45 TRAP), but 2 further, unidentified minor peaks. The effect of the different isoforms on expression of bone markers was tested on osteoblasts.

MG63 cells = assay: WST-1 cell proliferation and viability assay; type: cell-based, human; conditions: 1 μg/mL; after 7 days; compared to the negative control
Experimental: Minimum Essential Medium Eagle (MEM)+10% Fetal calf serum +1% Penicilin-Streptomycin (×100)+1% Non Essential Amino Acid Solution (×100)+1% L-Glutamine (200 mM) Seeding density MG63 cells in passage 4 were seeded with a density of 10,000 cells/cm2 on 96 wells culture plates. Sampling was performed after 24 hours and 7 days in vitro.
Furthermore, the proliferation reagent WST-1 test was performed to assess cell proliferation and viability. WST-1 solution was added in a final solution of 1:10 to the monolayer culture and cells were incubated at 37° C. for a further 1 hour. The absorbance of the supernatants was measured spectrophotometrically using VersaMax micro plate reader (Molecular Devices, California, USA) at 420 nm-480 nm with a reference wavelength of 600 nm. Results are reported as optical density (OD).

primary osteoblasts = assay: Affymetrix gene chip analysis of primary osteoblasts, EMD versus PTH; type: cell-based, human; conditions: 24 h after stimulation; cells of two donors
Experimental: Commercially available primary human osteoblasts from both femur and tibia of different donors (NHOst cell system; Cambrex, Walkersville, Md., USA) were grown in osteoblast growth media (OGM, Cambrex). Cultured osteoblasts were exposed to hydrocortisone hemisuccinate (200 nM) and h-glycerophosphate (10 mM) (Cambrex) in ambient medium to facilitate mineralization. The phenotype of cells was characterized based on the expression levels of alkaline phosphatase (ALP), collagen type 1, osteocalcin, and CD44 (late differentiation marker), and formation of mineralization nodules.
Primary osteoblasts were cultured in T75 culture flasks and cultured after treatment for 24 h, 72 h or 7d respectively and lysed in 7 ml Trizol solution (Gibco, USA). Trizol lysates were kept at −70° C. until RNA isolation according to the manufacturer's protocols and further processing (Dep. of Medical Biochemistry, Oslo University, Norway). Double stranded cDNA and biotin labeled cRNA probes were made from 5 μg total RNA using the Superscript Choice system (Invitrogen) and the Enzo Bioarray respectively. Procedures were according to recommendations from Affymetrix. […]
To compare the effects of PTH peptides and EMD on primary osteoblasts, cells of two donors were treated synchronously and expression patterns were analysed by affymetrix gene chip analysis. […]

[1] = system: MG63 human osteoblast-like cells; assay: Osteoblast differentiation in confluent MG63 cultures treated for 24 hours (DNA, ALP, osteocalcin, OPG, VEGF, FGF-2); type: cell-based
Experimental: Methods: Confluent cultures of MG63 human osteoblast-like cells and normal human osteoblasts were treated with or without EMD, recombinant human amelogenin (rhAmel), Fraction A (0.01-100 μg/ml) or Fraction C (0.1-250 μg/ml) for 24 hours. Effects on DNA content and alkaline phosphatase specific activity (ALP), and osteocalcin (OCN), osteoprotegerin (OPG), vascular endothelial growth factor A (VEGF-A) and fibroblast growth factor-2 (FGF-2) levels in the conditioned media were determined.
MG63 osteoblast-like cells, originally isolated from a human osteosarcoma, were obtained from the American Type Culture Collection (Rockville, Md.). […]
MG63 Cells were cultured in Dulbecco's modified Eagle medium (DMEM) containing 10% fetal bovine serum (FBS) and 1% penicillin and streptomycin at 37° C. in an atmosphere of 5% CO2 and 100% humidity. […] The levels of osteocalcin in the conditioned media were measured using a commercially available radioimmunoassay kit (Human Osteocalcin RIA Kit, Biomedical Technologies, Stoughton, Mass.) and normalized to DNA content. […] Osteoprotegerin was measured using enzyme-linked immunosorbent assay (ELISA) kit (DY805 Osteoprotegerin DuoSet, R&D Systems, Minneapolis, Minn.). VEGF was assesseds using an ELISA kit (RnD Systems). […] The absorbance of the samples was read using a microplate reader and the results analyzed using a standard curve. […]

Molecule | LDH activity in the culture medium (osteoblasts) | cell viability and proliferation (WST-1) (MG63 cells) | also measured
MPLPP HPGHPGYINFSYEVLTPLKWYQSIRPP-OH [WBRA001] |  |  | osteocalcin and CD44 expression and secretion (osteoblasts; molar concentration similar to fraction C, 5 μg/ml (0.9 μmol/L)): enhanced
C2RP: Peak 2 of Frac C; SEQ.ID.NO: 2, 45AA form MPLPPHPGHPGYINFSYEVLTPLKWYQNMIRHP-YTSYGYEPMGGW (MPLPPHPGHPGYINFXYEVLTPLKWYQNMIRHPYTSYGYEPMGGW; MOD_RES (16)..(16) Ser or Glu, wherein Ser is optionally phosphorylated; listed as Sus scrofa) [Fraction C2RP] | higher LDH activity | clear effect | 
C1RP: Peak 1 of Frac C; SEQ.ID.NO: 1, 43AA form MPLPPHPGHPGYINFSYEVLTPLKWYQNMIRHP-YTSYGYEPMG (MPLPPHPGHPGYINFXYEVLTPLKWYQNMIRHPYTSYGYEPMG; MOD_RES (16)..(16) Ser or Glu, wherein Ser is optionally phosphorylated; listed as Sus scrofa) [Fraction C1RP] | higher LDH activity | clear effect | 
B1 |  |  | genes more than 2-fold changed in the same direction with both EMD and PTH from non-treated controls (primary osteoblasts): 254 genes
B2 |  |  | concentration of maximal increases in osteocalcin ([1]; FIG. 4): 1 µg/mL; osteocalcin production (dose response) ([1]; FIG. 4, N=6 cultures per variable, p<0.05 v. control): biphasic increase
